Assays:
Test in all cases: Biacore 3000 binding to antibody-coated CM5 chip
human pro-MMP-9 = biological target: T1, human pro-MMP-9 (Homo sapiens, UniProt P14780); conditions: Direct capture, 25° C.
T1 construct: the human pro-MMP-9 (R&D, 911-MP); purchased R&D Systems 911-MP
Experimental: (§1) Experiments were performed at 25° C. with the help of a Biacore 3000 instrument. The MMP-9 binding protein (M0166F10) and the M0237-D02 antibody were coated to a CM5 chip either via standard amine coupling or using an anti-Fc antibody surface. Then either the active, human MMP-9 catalytic domain (BIOMOL, SE-244), the human pro-MMP-9 (R&D, 911-MP), the human TIMP-1 (R&D, 970-TM) or a h-MMP-9/h-TIMP-1 complex were flowed over the antibody surfaces, and binding was recorded.

human TIMP-1 = biological target: T2, human TIMP-1 (Homo sapiens, UniProt P01033); conditions: Direct capture; 25° C.
T2 construct: purchased R&D Systems 970-TM
Experimental: as §1

[1] = biological target: T3, Human MMP-9 catalytic domain (Homo sapiens, UniProt P14780); conditions: 25° C.
T3 construct: Human MMP-9 catalytic domain (BIOMOL, SE-244); purchased BIOMOL SE-244
Experimental: as §1

h-MMP-9/h-TIMP-1 complex = h-MMP-9/h-TIMP-1 complex (Homo sapiens, UniProt P14780); conditions: Direct capture, 25° C.
Experimental: The non competitive inhibition model implies that the ternary complex enzyme-substrate-inhibitor can form. It is however possible that this complex cannot form with bigger substrates, in which case the antibody would behave as a competitive inhibitor. In order to address this issue, the ability of M0237-D02 antibody to bind to the h-MMP-9 when the enzyme is complexed to its natural inhibitor h-TIMP-1 was determined. The reasoning is that if the antibody cannot bind to the h-MMP-9/h-TIMP-1 complex, it would probably behave as a competitive inhibitor of this enzyme in the presence of bigger substrates.
as §1

T3 sequence (P14780 107-444 limits assumed): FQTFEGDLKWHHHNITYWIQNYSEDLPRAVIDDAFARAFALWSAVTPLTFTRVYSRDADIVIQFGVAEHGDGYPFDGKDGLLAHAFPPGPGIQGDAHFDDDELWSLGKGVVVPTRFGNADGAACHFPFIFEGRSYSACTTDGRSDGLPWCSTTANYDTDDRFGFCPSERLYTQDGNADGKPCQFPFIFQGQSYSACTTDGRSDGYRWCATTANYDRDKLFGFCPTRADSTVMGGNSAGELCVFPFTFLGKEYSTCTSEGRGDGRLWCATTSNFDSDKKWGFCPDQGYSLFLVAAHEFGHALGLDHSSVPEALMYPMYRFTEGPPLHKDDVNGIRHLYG
T1 sequence (P14780 20-707 limits assumed): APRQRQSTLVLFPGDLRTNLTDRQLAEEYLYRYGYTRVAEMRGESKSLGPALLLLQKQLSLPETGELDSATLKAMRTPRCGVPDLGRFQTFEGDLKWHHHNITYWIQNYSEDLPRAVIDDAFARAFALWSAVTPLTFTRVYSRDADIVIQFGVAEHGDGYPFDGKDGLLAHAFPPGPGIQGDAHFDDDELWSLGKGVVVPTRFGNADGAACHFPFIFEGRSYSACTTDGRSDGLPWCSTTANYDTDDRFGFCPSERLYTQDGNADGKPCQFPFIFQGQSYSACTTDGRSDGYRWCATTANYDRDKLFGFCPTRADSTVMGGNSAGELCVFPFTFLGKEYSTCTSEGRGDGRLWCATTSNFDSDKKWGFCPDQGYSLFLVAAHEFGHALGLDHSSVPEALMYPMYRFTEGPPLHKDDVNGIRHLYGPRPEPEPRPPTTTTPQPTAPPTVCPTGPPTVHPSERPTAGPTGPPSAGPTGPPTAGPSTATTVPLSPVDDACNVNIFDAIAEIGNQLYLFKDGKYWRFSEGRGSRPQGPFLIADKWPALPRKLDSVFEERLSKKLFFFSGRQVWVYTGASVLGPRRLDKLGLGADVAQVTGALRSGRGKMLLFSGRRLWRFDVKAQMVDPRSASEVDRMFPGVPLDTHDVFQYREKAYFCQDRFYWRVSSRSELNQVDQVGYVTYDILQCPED
h-MMP-9/h-TIMP-1 complex, sequence (P14780 107-444 limits assumed): as the sequence (P14780 107-444 limits assumed) above
h-MMP-9/h-TIMP-1 complex, sequence (P01033 24-207 partner): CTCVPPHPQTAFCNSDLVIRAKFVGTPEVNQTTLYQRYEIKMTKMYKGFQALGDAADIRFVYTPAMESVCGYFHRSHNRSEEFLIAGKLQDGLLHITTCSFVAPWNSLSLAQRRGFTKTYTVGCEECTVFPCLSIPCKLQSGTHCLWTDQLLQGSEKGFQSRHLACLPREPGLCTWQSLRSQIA
T2 sequence (P01033 24-207): as the sequence (P01033 24-207 partner) above

B1: M0166-F10: inhibitory MMP-9 binding antibody (hMMP-9 antibody inhibitor) (antibody, V domains shown)
VH: EVQLLESGGGLVQPGGSLRLSCAASGFTFSPYLMNWVRQAPGKGLEWVSSIYSSGGGTGYADSVKGRFTISRDNSKNTLYLQMNSLRAEDTAVYYCARIYHSSSGPFYGMDVWGQGTTVTVSS
VL: QSELTQPPSASAAPGQRVTISCSGSSSNIGSNTVTWYQKLPGTAPKLLIYNNYERPSGVPARFSGSKSGTSASLAISGLQSEDEADYYCATWDDSLIANYVFGSGTKVTVLGQPKANP
Human pro-MMP-9
  binding of Pro-huMMP-9: observed neither
Human pro-MMP-9; listed as 539A-M0166F10
  binding of Pro-huMMP-9: ~No
Human TIMP-1
  binding of huTIMP-1: No
[1]; Direct capture (amine coupling)
  binding of Cat-huMMP-9: binds
[1]; Direct capture (amine coupling), listed as 539A-M0166F10
  binding of Cat-huMMP-9: Yes
[1]; Fc capture (anti-Fc antibody surface)
  binding of Cat-huMMP-9: binds
[1]; Fc capture (anti-Fc antibody surface), listed as 539A-M0166F10
  binding of Cat-huMMP-9: Yes
h-MMP-9/h-TIMP-1 complex
  binding of huTIMP-1/cat-huMMP-9: no binding was observed
h-MMP-9/h-TIMP-1 complex; listed as 539A-M0166F10
  binding of huTIMP-1/cat-huMMP-9: No

From US20110135573A1, “METALLOPROTEINASE 9 AND METALLOPROTEINASE 2 BINDING PROTEINS” (DYAX CORP., priority 2009, published 2011)
